Experimental findings from the nanobody polyreactivity screen of Harvey et al. (2022) are described below.

This series in a line: yeast display, Sf9 membrane polyspecificity reagent, FACS + sequencing; frameworks hold sequencing errors. The essentials: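 A synthetic nanobody library was expressed on Saccharomyces cerevisiae BJ5465 by galactose induction for 36–48 hours. The library was stained for 1 hour at 4 °C with 10% biotinylated, detergent-solubilized Sf9 membrane reagent and enriched with streptavidin microbeads before FACS. Low and high (top ~1%) gates were set on anti-HA fluorescence for expression and streptavidin fluorescence for reagent binding, and each polyreactivity label reflects the gate of origin.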
For “QVQLVESGGGLDQAGGSLRLSCAASGRIFYPYTMGWYRQAPGKERELVAAISSTGRTNYADSVKGRFTISRDNAKNTVYLQMNSLKPEDTAVYYCAKRYRKYSLGPPGNDYWGQGTQVTVSS”, the “polyreactivity (PSR sort gate)” value was “high polyreactivity”.
Consider “QVQLVESGGGLDQAGGSLRLSCAASGRIFYQNAMGLSRQAPGKERELVAAITSSGVSTYYADSVKGRFTISRDNAKNTVYLQMNSLKPEDTAVYYCAAYRVGYGGYSYYYWGQGTQVTVSS”, for which the “polyreactivity (PSR sort gate)” value is reported as “high polyreactivity”.
To “QVQLVESGGGLDQAGGSLRLSCAASGRIFYYYPMGWYRQAPGKERELVAGIDSGDSTNYADSVKGRFTITRDNAKNTVYLQINSLKPEDTAVYYCAALHYGGYFSYYPYYYWGQGTQATVSS” belongs “low polyreactivity”.
Regarding “QVQLVESGGGLDQAGGSLRLSCAASGRISGYYDMVWYRQAPGKERELVATITSDGGTNYADSVKGRFTISRDNAKNTVYLQMNSLKPEDTAVYDCAAYGWYTKWHFAYGYWGQGTQVTVSS”, the “polyreactivity (PSR sort gate)” value was “low polyreactivity”.
“QVQLVESGGGLDQAGGSLRLSCAASGRISIRNAMGWYRQAPGKETELVAAISRSGGSTYYADSLKGRFTISRDNAKNTVYLQMNSLKPEDTAVYYCAARGYSTYPMDYWGQGTQVTVSS”: the “polyreactivity (PSR sort gate)” value is recorded as “high polyreactivity”.
On to “QVQLVESGGGLDQAGGSLRLSCAASGRTFANAMGWYRQAPGKERELVAGITSGGGRTYYADSVKGRFTMSRDNAKNTVYLQMNSLKPEDTAVYYCNRATPPGRLKSDSWGQGTQVTVSS”, for which the “polyreactivity (PSR sort gate)” value is reported as “high polyreactivity”.
Consider “QVQLVESGGGLDQAGGSLRLSCAASGRTFAVYAMGWYIQAPGKERELVASIRLSGTRTYYADSVKGRFTISRDHAKNTVYFQMNSLKPEDTAVYYCAAKGTYSRGTFNGYRYDYWGQGTQVTVSS”, for which the “polyreactivity (PSR sort gate)” value is “high polyreactivity”.
To “QVQLVESGGGLDQAGGSLRLSCAASGRTFGRYAMGWYRKAPGTERELVAAISWSGGSTYYADSVKGRFTISRDNAKNTVYLQMNSLKPEDTAVYYCAAYEHVYEYDYWGQGTQVTVSS” belongs “low polyreactivity”; to “QVQLVESGGGLDQAGGSLRLSCAASGRTFKYYAMGWYRQAPGKERELVAAITRSGSTYYADSVKGRFTISRDNAKNTVYLQMNSLKPEDTAVYYGAADVTLYYRGRRYYYWGQGTQVTVSS”, “high polyreactivity”.
As to “QVQLVESGGGLDQAGGSLRLSCAASGRTFLVYAMGWYRQAPGKERELVAAISRSGGSTYYADSVMRRFTISRDNAKNNVYLQMNSLIPEDTAVYYCAAKKTGRYYWGQGTEVTVSS”, the “polyreactivity (PSR sort gate)” value is “high polyreactivity”.
As to “QVQLVESGGGLDQAGGSLRLSCAASGRTFRYYAMGWDRQAPGKERELVAAITGSGGSTYYADSVKGRFTISRDIAKNTVYLQMNSLKPEDTAVYYCATRWALRWRGGYWGQGTQVTVSS”, the “polyreactivity (PSR sort gate)” value is on record as “high polyreactivity”.
Consider “QVQLVESGGGLDQAGGSLRLSCAASGRTLYRYAMGWYRQSPGKERELVAAIRSGGRTNYADSVKGRFTISRDNAKNTVYLQLNSLKPEDTAVYYCAARTLRYPSTYDYWGQGTQVTVSS”, for which the “polyreactivity (PSR sort gate)” value is reported as “high polyreactivity”.
With “QVQLVESGGGLDQAGGSLRLSCAASGSIFGRNAMRWYRQAPGKERELVAAITGYTYYADSVKGRFTISRDNAKNTVYLQMNSLKPEDTAVYYINADHDVGWTYDTEYNYWGQGTQVTVSS”, the “polyreactivity (PSR sort gate)” value is “low polyreactivity”.
Take “QVQLVESGGGLDQAGGSLRLSCAASGSIFGTNTMGWYRQSPGKERELVAAIRLSDSSTYYADSVKGRFTISRDNAKNTVYLQMNSLKPEDTAVYYCAVDYRAYHYYRYDYWGQGTQVTVSS”: the “polyreactivity (PSR sort gate)” value was “low polyreactivity”.
To “QVQLVESGGGLDQAGGSLRLSCAASGSIFLDYAMGWYRQAPGKERELVAAISLSSSRTYYADSLKGRFTISRDNAKNTVYLQLNSLKPEDTAVYNCNKLSIWSYYFGPYGYDYWGQGTQVTVSS” belongs “low polyreactivity”; to “QVQLVESGGGLDQAGGSLRLSCAASGSIFRRYTMGWYRQAPGKERELVAAISRVGNTNYADSVKGRITISRDNAKNTVYFQMNSLKPEDTEVYYCAARAIGYRYTPGLNYWGQGTQVTVSS”, “high polyreactivity”; to “QVQLVESGGGLDQAGGSLRLSCAASGSIFSVYAMGWYRQARGKERELVAAITSGTSTYADSVKGRFTISRDNAKNSVYLQMNSLKPEDTAVYYCAAESGSPGYYYWGQGTQVTVSS”, “low polyreactivity”.
As to “QVQLVESGGGLDQAGGSLRLSCAASGSIFVGYAMGWYRQAPGKERELVASINYSGGTTDYADSVKGRFTISRDNAKNTVYLQMHSLKPEDTAVYYCAKTAVDCSFTKGVDYDYWGQGTQVTVSS”, the “polyreactivity (PSR sort gate)” value is on record as “low polyreactivity”.
Turning to “QVQLVESGGGLDQAGGSLRLSCAASGSIFVPYAMGGYRQAPGKERELVAAITSGDSTYYADSVKGRFTISRDNAKNNVYLQMNSLKPEDTAVYYCAADIRPTLSLLSLFDYEYWGQGTQVTVSS”, the “polyreactivity (PSR sort gate)” value is “low polyreactivity”.
Regarding “QVQLVESGGGLDQAGGSLRLSCAASGSISGYNAMGWYRQAPGKERELVASIRYTGARSYYADSGKGRFTISRDNAKNTVYLQMNSLKPEDTAVYYCAADSAYDVTSYGYWGQGTQVTVSS”, the “polyreactivity (PSR sort gate)” value is “low polyreactivity”.
In the case of “QVQLVESGGGLDQAGGSLRLSCAASGSTFGVYAMGWYRQAPGKERELVAAISSSTGSTYYADSVKGRFTISRDNAKNTVYLQMNSLKPEDTAVYYCAAEYDGPYYSFYPEQRYYWGQGTQVTVSS”, the “polyreactivity (PSR sort gate)” value was “low polyreactivity”.
For “QVQLVESGGGLDQAGGSLRLSCAASGSTFHYYAMGWYRQPHGKERELVAVISSGGSTYYADSVKGRFTISRDNAKNTVYLQMNSLKPEDTAVYYCAAEYFLLAGKGYNGGDYYVYDYWGQGTQVTVSS”, the “polyreactivity (PSR sort gate)” value was “low polyreactivity”.
On to “QVQLVESGGGLDQAGGSLRLSCAASGSTFLHYAMGWYRQAPRKERELVAAISFSGVRTYYADSVKGRFTISRDNAKNTVYLQMNSLKPEDTAVFYCAADGHHADYDYWGQGTQVTVSS”, for which the “polyreactivity (PSR sort gate)” value was “low polyreactivity”.
With “QVQLVESGGGLDQAGGSLRLSCAASGSTFPSNAMGWYRQAPGNESEFVAAITFRGGRTYYADSVKGRFTISRDNAKNTVYLQMNSLKREDTAVYYCAAERWWYTVRGYGYWGQGTQVTVSS”, the “polyreactivity (PSR sort gate)” value is recorded as “high polyreactivity”.
To “QVQLVESGGGLDQAGGSLRLSCAASGSTFRYYTMGWYRQAHGKERELVAAISSRGGSTYYADSVKGRFTISRDNAKKTVYLQMNSLKPEDSAVYYCCALYPSWAQRGRDYWGQGTQVSVSS” belongs “high polyreactivity”; to “QVQLVESGGGLDQAGGSLRLSCAASGSTFSQYVMGWYRQAPGKERELVAANSSGGSTYYADSVKGRFTISRDNAKNTVYLQMNSLKPEDTAVYYCAAKYDGSYVGLYWYSMNYWGQGTQVTVSS”, “low polyreactivity”; to “QVQLVESGGGLDQAGGSLRLSCAASGSTFTKNVMGWYRQAPGKERELVAAISSGGRTNYADSVKGRFTISRDNAKNTVYLQMNSLKPEDTAVYFCAADVGYFKSDYWGQGTQVTVSS”, “low polyreactivity”.
With “QVQLVESGGGLDQAGGSLRLSCAASGSTFVWNAMGWYRHAPGKERELVAAISSSGGSTYYADSVKGRFTISRDNAKNTVYLQMNSLKPEDTAVYYCAKGYYVRMDWGQGTQVTVSS”, the “polyreactivity (PSR sort gate)” value was “high polyreactivity”.
To “QVQLVESGGGLDQAGGSLRLSCAASGSTFVYNVMGWYRQAPGKERELVAAITSGVRTYYADSEKGRFTISRDNAKNTGYLQMNSLKPEDTAVYYCATGWRNAKYYYWGQGTQVNVSS” belongs “high polyreactivity”; to “QVQLVESGGGLDQAGGSLRLSCAASGTTFVPNDMGWYRQAPGKERELVAAITDSGGSTYYADSVWGRFTISRDNAKNTVYLQMNILKPEDTAVYYCADVQHYVTHMDYWGQGNQVTVSS”, “low polyreactivity”; to “QVQLVESGGGLDQAGGSLRLSCAASVLIFNIYARGWYRQAPGKERELVATIRYSGGSTNYADSVKGRFTISRDNAKNTVYLQMNSLKPEDTAVYYCNAGYYPSGYDYWGQGTQVTVSS”, “low polyreactivity”.
To “QVQLVESGGGLDQAGGSLRLSCAAYGITFGYYAMGWYRQAPGKERELVASITTRGGSTSYADSVKGRFTISRDNAKNTVYLQMNSLKPEDTAVYYCAARWRQRKSVRYGQQGYDYWGQGTQVTVSS” belongs “high polyreactivity”.
Consider “QVQLVESGGGLDQAGGSLRLSCADSGSIFESYAMGWYRQAPGKERELVAAITKRGGSTYYADSVKGRFTISRDNAKNTVYLQMNSLKPEDTAVYYCNARWPGIGPIYDYWGQGTQVTVSS”, for which the “polyreactivity (PSR sort gate)” value is on record as “low polyreactivity”.
Consider “QVQLVESGGGLDQAGGSLRLSCDASGRIFGYYAMGWYRQAPGKERELVAAITWTGGGTYYADSVKGRFTISRDNAKNTVYIQMNSLKPEDTAVYYCAADPDSGQFPFDYWGQGTQVTVSS”, for which the “polyreactivity (PSR sort gate)” value was “low polyreactivity”.
Turning to “QVQLVESGGGLDQAGGSLRLSCPASGSTFLNNAMGRYRQAPGKERELVATITSGGITNYADSVKGRFTISRDNAKNCVYLQMNSLKPEDTAVYYCNADTWGFTYYYWGQGTQVTVSS”, the “polyreactivity (PSR sort gate)” value was “low polyreactivity”.
To “QVQLVESGGGLDQAGGSLRLSCVASGFTFRVYAMGWYRQAPGKERELVAAISRVGSTNYADSVKGRFTISRDNAKNTVYLQMNSLKPEDTAVYYCNAVLRHTWVSRGYGSWGQGTQVTVSS” belongs “high polyreactivity”; to “QVQLVESGGGLDQAGGSLRLSSAASGFTFERYPMGWDRQAPGKEREMVAAIDWRGVNTYYADSVKGRFTISRHTAKTTVYLQMNSLKPEDTAVYYCNARAYGRYYWGQGTQVTVSS”, “high polyreactivity”.
As for “QVQLVESGGGLDQAGGSLRLSSAASGSIFRGNAMGWYRQAPGKERELVAGINRAGSTKYADSVKGRFTISRDNAKNTVYLQMNSLIPEDTAVYYCAAVRYERGLWSDYWGQGTQVTVSS”, the “polyreactivity (PSR sort gate)” value is given as “high polyreactivity”.
To “QVQLVESGGGLDQAGGSLRLTCAASGSIFAKYAMGWYRQAPGKERELVAAITSSGDSTNYADSVKGRFTISRDNAKNTVYVQMNSLKPEDTAVYYCAADHHYGYVYYAFWGYDYWGQGTQVTVSS” belongs “low polyreactivity”; to “QVQLVESGGGLDQAGGSLRLTCAASGSTFEVYAMGWYRQAPGKERELVAVNNVSDGSTYYADSVKGRFTISRDNAKNTVYLQMNSLKPEDTAVYYCAAYLYNRPYQLTGYYDGYGYWGQGTQVTVSS”, “low polyreactivity”; to “QVQLVESGGGLDQAGGSLSLICAASASIFSYYAMGWYRQAAGKERELVATISSGGSTNYADSVKGRFTISRDNAKNTVYLQMNSLKPEDTAVYYCAATIGHNGFDYWGQGTQVTVSS”, “low polyreactivity”.
